The record followed here is US11833164B2, “Methods of treating Fabry disease in patients having a mutation in the GLA gene” (Amicus Therapeutics, Inc., priority 2019, dated 2023).

Residue numbers refer to the chain shown, from its start. Names may count otherwise.

This test concerns mutant form of α-Gal A expressed in HEK-293 cells. The test can be described thus: HEK assay (GLP HEK / Migalastat Amenability Assay): α-Gal A activity in lysates of transiently transfected HEK-293 cells incubated with or without 10 μM migalastat. It is filed as cell-based, human. Conditions: for 10 μM migalastat α-Gal A activity (% WT): 5 days; for 10 μM migalastat α-Gal A activity (% WT) / Baseline α-Gal A activity (% WT): percentage of baseline wild-type α-Gal A activity; for 10 μM migalastat α-Gal A activity (% WT) / Baseline α-Gal A activity (% WT) / Baseline α-Gal A activity / 10 μM migalastat α-Gal A activity: mean ± SEM; for 10 μM migalastat α-Gal A activity: incubated 5 days with 10 μM migalastat. An outline of the steps: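 HEK-293 cells transiently transfected with mutant α-Gal A and incubated with or without 10 μM migalastat; lysate activity given as nmol free 4-MU released per mg protein per hour. Values are mean±SEM.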

Setting [1] is: 10 μM migalastat versus baseline.
Setting [2] is: 10 μM migalastat α-Gal A activity relative to baseline.
[3] abbreviates: lysates of HEK-293 cells transfected with the mutant form, incubated 5 days in the absence of migalastat.
[4] abbreviates: lysates of HEK-293 cells transfected with the mutant form.

B1: S188C (protein)
chain: MQLRNPELHLGCALALRFLALVSWDIPGARALDNGLARTPTMGWLHWERFMCNLDCQEEPDSCISEKLFMEMAELMVSEGWKDAGYEYLCIDDCWMAPQRDSEGRLQADPQRFPHGIRQLANYVHSKGLKLGIYADVGNKTCAGFPGSFGYYDIDAQTFADWGVDLLKFDGCYCDSLENLADGYKHMCLALNRTGRSIVYSCEWPLYMWPFQKPNYTEIRQYCNHWRNFADIDDSWKSIKSILDWTSFNQERIVDVAGPGGWNDPDMLVIGNFGLSWNQQVTQMALWAIMAAPLFMSNDLRHISPQAKALLQDKDVIAINQDPLGKQGYQLRQGDNFEVWERPLSGLAWAVAMINRQEIGGPRSYTIAVASLGKGVACNPACFITQLLPVKRKLGFYEWTSRLRSHINPTGTVLLQLENTMQMSLKDLL
On to B1, for which, under setting [1], the “Absolute increase (% WT)” value is on record as 18.5 % WT. This molecule came in with a Relative increase under setting [2] of 1.4. The “10 μM migalastat α-Gal A activity (% WT)” value (10 μM migalastat) was 68.6 ± 4.3 % WT. Moreover, the “Baseline α-Gal A activity (% WT)” value (absence of migalastat) was determined as 50.1 ± 3.7 % WT. Besides, the “Baseline α-Gal A activity” value under setting [3] was 18465 ± 1552 nmol/mg/h. The “10 μM migalastat α-Gal A activity” value under setting [4] was 25569 ± 2083 nmol/mg/h.

B2: A190S (protein)
chain: B1 chain with C188S, A190S
Turning to B2, the “Absolute increase (% WT)” value under setting [1] is on record as 26.1 % WT. Under setting [2], this molecule returned a Relative increase of 1.3. For the same molecule, the “10 μM migalastat α-Gal A activity (% WT)” value (10 μM migalastat) stood at 110.6 ± 5.5 % WT. Further, for the setting “absence of migalastat”, the “Baseline α-Gal A activity (% WT)” value is listed as 84.5 ± 3.2 % WT. Besides, the “Baseline α-Gal A activity” value under setting [3] was 27316 ± 1369 nmol/mg/h. The “10 μM migalastat α-Gal A activity” value under setting [4] worked out at 35787 ± 2235 nmol/mg/h.

B3: L189S (protein)
chain: B1 chain with C188S, L189S
With B3, the “Absolute increase (% WT)” value under setting [1] worked out at 20.1 % WT. The molecule also came in with a Relative increase under setting [2] of 1.3. Besides, under “10 μM migalastat”, the “10 μM migalastat α-Gal A activity (% WT)” value was 92.7 ± 3.2 % WT. The “Baseline α-Gal A activity (% WT)” value (absence of migalastat) was 72.6 ± 3.1 % WT. For the same molecule, under setting [3], the “Baseline α-Gal A activity” value came out at 23204 ± 1213 nmol/mg/h. Moreover, the “10 μM migalastat α-Gal A activity” value under setting [4] was 29510 ± 1181 nmol/mg/h.

B4: L286F (protein)
chain: B1 chain with C188S, L286F
With B4, under setting [1], the “Absolute increase (% WT)” value was determined as 23.2 % WT and the Relative increase is 1.4. For the same molecule, the “Baseline α-Gal A activity (% WT)” value (absence of migalastat) is reported as 64.5 ± 2.8 % WT. Moreover, for the setting “lysates of HEK-293 cells transiently transfected with the mutant form, incubated 5 days in absence of migalastat”, the “Baseline α-Gal A activity” value came to 29390 ± 1225 nmol/mg/h. Also, where the note is “lysates of HEK-293 cells transiently transfected with the mutant form”, the “10 μM migalastat α-Gal A activity” value came to 39732 ± 2859 nmol/mg/h. For the same molecule, the “10 μM migalastat α-Gal A activity (% WT)” value (with 10 μM migalastat) turned out to be 87.7 ± 7.3 % WT.

B5: S188P (protein)
chain: B1 chain with C188P
In the case of B5, under setting [1], the “Absolute increase (% WT)” value was 3.2 % WT. Further, the “10 μM migalastat α-Gal A activity (% WT)” value (10 μM migalastat) is given as 3.2 ± 0.2 % WT. Where the note is “absence of migalastat, mean activity below the limit of detection (<142 nmol/mg/hr)”, the “Baseline α-Gal A activity (nmol/mg/hr)” value was “BLD (“BLD” indicates that the mean α-Gal A activity was below the limit of detection (<142 nmol/mg/hr))”. Besides, the “10 μM migalastat α-Gal A activity” value under setting [4] stood at 1159 ± 61 nmol/mg/h.

B6: A190D (protein)
chain: B1 chain with C188S, A190D
With B6, the “Absolute increase (% WT)” value under setting [1] is given as 26.9 % WT. The Relative increase under setting [2] worked out at 2.2. Further, the “10 μM migalastat α-Gal A activity (% WT)” value (10 μM migalastat) is given as 49 ± 3.4 % WT. Also, the “Baseline α-Gal A activity (% WT)” value (absence of migalastat) stood at 22.1 ± 1 % WT. For the same molecule, the “Baseline α-Gal A activity” value under setting [3] came out at 7141 ± 423 nmol/mg/h. The “10 μM migalastat α-Gal A activity” value under setting [4] is 15887 ± 1308 nmol/mg/h.

B7: N192D (protein)
chain: B1 chain with C188S, N192D
Turning to B7, the “Absolute increase (% WT)” value under setting [1] came out at 55.6 % WT. Moreover, the Relative increase under setting [2] worked out at 3.2. Moreover, the “10 μM migalastat α-Gal A activity (% WT)” value (10 μM migalastat) was 81.5 ± 6.7 % WT. For the setting “absence of migalastat”, the “Baseline α-Gal A activity (% WT)” value came out at 25.9 ± 3 % WT. For the same molecule, the “Baseline α-Gal A activity” value under setting [3] is 9035 ± 886 nmol/mg/h. Further, the “10 μM migalastat α-Gal A activity” value under setting [4] worked out at 28923 ± 1892 nmol/mg/h.

B8: S188T (protein)
chain: B1 chain with C188T
For B8, the “Absolute increase (% WT)” value under setting [1] was 24.0 % WT. Moreover, the Relative increase under setting [2] is reported as 1.5. Besides, the “10 μM migalastat α-Gal A activity (% WT)” value (10 μM migalastat) is reported as 69.5 ± 4.5 % WT. Moreover, the “Baseline α-Gal A activity (% WT)” value (absence of migalastat) amounted to 45.4 ± 2.5 % WT. Also, the “Baseline α-Gal A activity” value under setting [3] is 17041 ± 1389 nmol/mg/h. In addition, under setting [4], the “10 μM migalastat α-Gal A activity” value was 26198 ± 2461 nmol/mg/h.

B9: L191M (protein)
chain: B1 chain with C188S, L191M
Consider B9, for which the “Absolute increase (% WT)” value under setting [1] came to 41.7 % WT. In addition, under setting [2], the Relative increase worked out at 1.8. Besides, the “10 μM migalastat α-Gal A activity (% WT)” value (10 μM migalastat) turned out to be 100.2 ± 9.8 % WT. Moreover, the “Baseline α-Gal A activity (% WT)” value (absence of migalastat) was 58.4 ± 6.6 % WT. The “Baseline α-Gal A activity” value under setting [3] was 19968 ± 2010 nmol/mg/h. Also, under setting [4], the “10 μM migalastat α-Gal A activity” value was determined as 34977 ± 3072 nmol/mg/h.

B10: A190V (protein)
chain: B1 chain with C188S, A190V
As for B10, under setting [1], the “Absolute increase (% WT)” value is reported as 41.2 % WT. For the same molecule, the Relative increase under setting [2] is 2.2. Moreover, the “10 μM migalastat α-Gal A activity (% WT)” value (10 μM migalastat) is 77.9 ± 9.5 % WT. Further, the “Baseline α-Gal A activity (% WT)” value (absence of migalastat) came out at 36.8 ± 5.1 % WT. Also, the “Baseline α-Gal A activity” value under setting [3] was 12542 ± 1642 nmol/mg/h. Also, under setting [4], the “10 μM migalastat α-Gal A activity” value is 27078 ± 2910 nmol/mg/h.

B11: S188F (protein)
chain: B1 chain with C188F
For the molecule B11, the “Absolute increase (% WT)” value under setting [1] was 36.4 % WT. Further, the Relative increase under setting [2] worked out at 2.8. Also, the “10 μM migalastat α-Gal A activity (% WT)” value (10 μM migalastat) stood at 57.1 ± 2.8 % WT. Moreover, the “Baseline α-Gal A activity (% WT)” value (absence of migalastat) worked out at 20.7 ± 2 % WT. For the same molecule, the “Baseline α-Gal A activity” value under setting [3] turned out to be 7746 ± 839 nmol/mg/h. Also, the “10 μM migalastat α-Gal A activity” value under setting [4] came out at 21273 ± 1477 nmol/mg/h.

B12: L191V (protein)
chain: B1 chain with C188S, L191V
As to B12, the “Absolute increase (% WT)” value under setting [1] is recorded as 39.1 % WT. This molecule gave a Relative increase under setting [2] of 1.6. The “10 μM migalastat α-Gal A activity (% WT)” value (10 μM migalastat) stood at 110.2 ± 7.9 % WT. The “Baseline α-Gal A activity (% WT)” value (absence of migalastat) is on record as 71.1 ± 4.7 % WT. For the same molecule, the “Baseline α-Gal A activity” value under setting [3] worked out at 24068 ± 1533 nmol/mg/h. Besides, the “10 μM migalastat α-Gal A activity” value under setting [4] amounted to 37342 ± 2569 nmol/mg/h.

B13: L189V (protein)
chain: B1 chain with C188S, L189V
Turning to B13, the “Absolute increase (% WT)” value under setting [1] was found to be 20.2 % WT. For the same molecule, the Relative increase under setting [2] is on record as 1.3. Moreover, where the note is “10 μM migalastat”, the “10 μM migalastat α-Gal A activity (% WT)” value is given as 100.1 ± 3.9 % WT. In addition, the “Baseline α-Gal A activity (% WT)” value (absence of migalastat) came out at 79.9 ± 5.1 % WT. Further, the “Baseline α-Gal A activity” value under setting [3] turned out to be 25544 ± 1758 nmol/mg/h. Besides, under setting [4], the “10 μM migalastat α-Gal A activity” value turned out to be 32031 ± 1633 nmol/mg/h.

B14: S188Y (protein)
chain: B1 chain with C188Y
Regarding B14, the “Absolute increase (% WT)” value under setting [1] was 31.5 % WT. The same molecule showed a Relative increase under setting [2] of 2.0. Further, the “10 μM migalastat α-Gal A activity (% WT)” value (10 μM migalastat) stood at 64.1 ± 3.5 % WT. In addition, the “Baseline α-Gal A activity (% WT)” value (absence of migalastat) came out at 32.6 ± 2.6 % WT. For the same molecule, under setting [3], the “Baseline α-Gal A activity” value stood at 12244 ± 1167 nmol/mg/h. Also, the “10 μM migalastat α-Gal A activity” value under setting [4] amounted to 23849 ± 1725 nmol/mg/h.

B15: N192H (protein)
chain: B1 chain with C188S, N192H
Turning to B15, the “Absolute increase (% WT)” value under setting [1] is 16.4 % WT. Under setting [2], the Relative increase is 2.8. Besides, the “10 μM migalastat α-Gal A activity (% WT)” value (10 μM migalastat) came to 24.9 ± 3 % WT. Besides, where the note is “absence of migalastat”, the “Baseline α-Gal A activity (% WT)” value stood at 8.6 ± 1.1 % WT. For the same molecule, under setting [3], the “Baseline α-Gal A activity” value was 3103 ± 402 nmol/mg/h. Moreover, the “10 μM migalastat α-Gal A activity” value under setting [4] was 8765 ± 935 nmol/mg/h.

B16: A190G (protein)
chain: B1 chain with C188S, A190G
In the case of B16, under setting [1], the “Absolute increase (% WT)” value stood at 27.4 % WT. Also, under setting [2], the Relative increase is given as 1.4. For the same molecule, the “10 μM migalastat α-Gal A activity (% WT)” value (10 μM migalastat) is listed as 97.9 ± 9.8 % WT. For the setting “absence of migalastat”, the “Baseline α-Gal A activity (% WT)” value is listed as 70.5 ± 7.3 % WT. Further, the “Baseline α-Gal A activity” value under setting [3] was found to be 24299 ± 2173 nmol/mg/h. Moreover, under setting [4], the “10 μM migalastat α-Gal A activity” value was 34126 ± 2992 nmol/mg/h.

B17: A190T (protein)
chain: B1 chain with C188S, A190T
B17: under setting [1], the “Absolute increase (% WT)” value is 30.7 % WT. Under setting [2], this molecule showed a Relative increase of 2.1. The “10 μM migalastat α-Gal A activity (% WT)” value (10 μM migalastat) turned out to be 57 ± 1.9 % WT. In addition, the “Baseline α-Gal A activity (% WT)” value (absence of migalastat) was 26.3 ± 2 % WT. Moreover, under setting [3], the “Baseline α-Gal A activity” value stood at 8600 ± 733 nmol/mg/h. The “10 μM migalastat α-Gal A activity” value under setting [4] worked out at 18373 ± 795 nmol/mg/h.
